The DeepSol protein solubility set

Experiment: soluble on expression in E. coli; label from the status in PepcDB or PDB records

Sequence	soluble on expression in E. coli
MSLAYISLKSNLENPKYSLNVAHLYGDLMNTYGDNGNILMLKYVGEKLGAEMTFNIVSLGDTFAKEDYDLVFWGGGQDYEQEIIADQSLIDLSAPLKDYIESEKPLLAICGGYQMLGQYYVNSEGTKIQGTGILGHYTENLRTDRFIGDIETHNEEFGETYYGFENHSGITYLSDDEKPLGTVVYGGGNNPDDQTEGLIYKNTFGTYFHGPILSRNARLAYRLVTTALYQKYGEEIQLPAFEEILADEDKGQQIGDLKRKVEKEGHHHHHH	soluble
VIRRSSLSSTESEIRMDATTVSTTDDIWSPSWDDPFEPTTDHDDEFAELTDALRAVQEAVTRSRPTPEAAGRAARTLRDLAARLAAFEVGEDEQISGRRWDLAGRGQTLTPALHLDEVTENRARGHVVVGRFHSGRYAMNGGVTPLIFDEILARLANSCGRPWARTAYLHVNYRAPAPLDVELRVEAEFAGQDGRKRFMRGAMYHGDVLVADVEGLWIELKPEQTQNVSLAVGWGAEENS	not soluble
MKNRIIAAGVIAASILSYSSSSFAQTKTFPDVQTGHWAEDSINYLAEKGAVTGNEKGMFEPGKEITRAEAATMMAKILNLPIDKNAKPSYADSQKHWATPIIAAVEKAGVVKGTGNGFEPDGKIDRVSMASLLVEAYKLESKVNGTPATKFKDLETLNWGKEKANILVELGISVGTGDKWEPKKILTKAEAAQFIKKADSLKVGNPLVEKVVIIDPGHGGFDPGNPGQGVEESKIVFDTSLRLQKLLEKNTPLKALLTREENGNPGSNKNESLANRVKFGQENNADIFVSIHANSSEKHDGHGTETYYYKKSKRGEETQIEKDSEVLAKKIQNRVVEALHTRDRKIKDDHSLYVVNNNTVPAVLTELAFIDNDIDNGKLATESGRQIAAEAVYAGILDYYEWKGFDVSKYRLAK	not soluble
MEIVDTRTPNSKRFISGVTGDWEVIIGMEVHAQIISNSKLFSGASTKFGAEPNNHVSLIDAAMPGMLPVLNQECVRQAVRTGLGLKARINLRSVFDRKNYFYPDLPQGYQISQFRYPIVGEGKIIISIGPDSNGQFEDIEVGIERLHLEQDAGKSMHDQHPTMSFVDLNRSGVALMEIVSKPDMRSADEAKAYMTKLRTIVRYLGTCDGNMDEGSMRADVNVSVRRPGESFGTRCEIKNVNSIRFIGQAIEYEARRQIAILEDGGVIDQETRLFDAAKGETRSMRSKEEAHDYRYFPDPDLLPLEFDQAFVDALAAELPELPDDIKIRFINEMGLTAYDASILVTEKAIANYFEKVAHGRDGKTVANWVINDLLGALNKDNREIEETPVSPDQLGSIIDLIKEGTISGKIAKDLFEIIWHEGGDPRQIVEERNMKQVTDTKAIERAVDEIMANNSDKVAQAKQKPALAGWFVGQVMKTTGGKANPQTVNELVKLKLGID	not soluble
AVKRRPRFPVNSNSNGGNELCPKIRIGQDDLPGFDLISQFQVDKAASRRAIQRVVGSATLQVAYKLGNNVDFRIPTRNLYPSGLPEEYSFLTTFRMTGSTLKKNWNIWQIQDSSGKEQVGIKINGQTQSVVFSYKGLDGSLQTAAFSNLSSLFDSQWHKIMIGVERSSATLFVDCNRIESLPIKPRGPIDIDGFAVLGKLADNPQVSVPFELQWMLIHCDPLRPRRETCHELPARITPSQTTDER	soluble
MDWKKIYEDRTCTADEAVKSIKSGDRVLFAHCVAEPPVLVEAMVANAAAYKNVTVSHMVTLGKGEYSKPEYKENFTFEGWFTSPSTRGSIAEGHGQFVPVFFHEVPSLIRKDIFHVDVFMVMVSPPDHNGFCCVGVSSDYTMQAIKSAKIVLAEVNDQVPVVYGDTFVHVSEIDKFVETSHPLPEIGLPKIGEVEAAIGKHCASLIEDGSTLQLGIGAIPDAVLSQLKDKKHLGIHSEMISDGVVDLYEAGVIDCSQKSIDKGKMAITFLMGTKRLYDFAANNPKVELKPVDYINHPSVVAQCSKMVCINACLQVDFMGQIVSDSIGTKQFSGVGGQVDFVRGASMSIDGKGKAIIAMPSVAKKKDGSMISKIVPFIDHGAAVTTSRNDADYVVTEYGIAEMKGKSLQDRARALINIAHPDFKDELKAEFEKRFNAAFSAWSHPQFEK	soluble
DFGKAMYIDNPRDHAVKHFSKVYQCQSADDVQAVKKKLYDDKTAIIEKVAEQTKSFDVASTQVSGRSLKGSIDVPTLPALPQPETRQGAPKLSVLISSAQEAMLCEYQDIDVYYQLPMGLSGELSAMIELFQANPMLKPWFPAILIGEDYQAARVFLETIQPELLITNNSGVGMITKELGLGWVAGPQMNTVNSYAFKCLQDEFAASGAFVSNELNMKQMRHIKRPKNMRSFYSIYHPNTLLTSRQCLFQQTEGCRKVKVNKGCLKRCDKRTSIINLKDNPYVVQKQKGSHNSIYSEHNVLNLQVLHDLPQLFTDVLIDLRDIQTETKVSASKPELIDAFLALLEDHSEQAIQTLNAMIQPTANAQYLKGL	not soluble
MKVCKFEKMKEEDEIRQVINYILKEHPYVVVVPTLTQLQEWLQDISISWFHEEDSASHTTINNIEEYCCTLADHLITDLPLNTDIKKYIRECIEKMHKLVEDKADLLIDKIIKAEIYRLSGELFACCLRQHGLNARTLDTGTFMQMNLERKPDIPYIQESIRQYINENRDTDIFIAPLSLCKNVYGEIDFMNEKRNDYYATVLASIFEADEIILSTELTNIYANRNCAREQHSLTYTEAEQLINSGVHLIYTDCITLAARSNIVIRLIDTHDLETERLYISSHDTESSVKAIIVQDSVTFVRFTSLNVLPGYLLMGKLLEVINKYQINVISMASSNVSVSMILTASRDTLRIIQRELHKYTEMVVDENMSVIHIIGSLHWERTQLESNIMETIRHIPISLISYGGSDHCFTISVHTADKKQLLNSLSQRFLERLSALEHHHHHH	not soluble
MIKMIVVLRLGHRPERDKRVTTHVALTARAFGADGIIIASEEDEKVKESVEDVVKRWGGPFFIEFNRNWRKVMKEFTGVKVHLTMYGLHVDDVIEELKEKLKKGEDFMIIVGAEKVPREVYELADYNVAIGNQPHSEVAALAVLLDRLLEGKGLKKEFKGAKIKIVPQARGKKVVEVQGYAEQDKAEGKATPGKNWENSGFTGDNP	soluble
MEITDVRIRKIDSEGKMKAVVSVTFDNEFVVHDIKVIESQNGLFIAMPSRKAPDGEFRDIAHPINAETRSKIQTAILDKYESICAGSTETEGNN	soluble
MNTVPFTSAPIEVTIGIDQYSFNVKENQPFHGIKDIPIGHVHVIHFQHADNSSMRYGYWFDCRMGNFYIQYDPKDGLYKMMEERDGAKFENIVHNFKERQMMVSYPKIDEDDTWYNLTEFVQMDKIRKIVRKDENQFSYVDSSMTTVQENELLKSSLQKAGSKMEAKNEDDPAHSLNYTVINFKSREAIRPGHEMEDFLDKSYYLNTVMLQGIFKNSSNYFGELQFAFLNAMFFGNYGSSLQWHAMIELICSSATVPKHMLDKLDEILYYQIKTLPEQYSDILLNERVWNICLYSSFQKNSLHNTEKIMENKYPELLGKDNEDDALIYGISDEERDDEDDEHNPTIVGGLYYQRP	soluble
MGSDKIHHHHHHYMDTIPTENVSFTTVSTSLDNLYLALNGIHRKMVSQDLGNQGLGGEPGFIIGREALADDLTWDTQTWHQGFLNWSYPTNATSSYNSGEWETYYKFILNANNILKALNDNFSDESKLTDSEKALANHIKGECLAIRAWSHFNLVQYYAKPYRNGQDNSQPGVPYRTSPEIEPMARNTVEEVYTKIHGDLDEALNLLADYEPNDKNHYSLASVYGLKARALLTQQKYADAATAAVNSINEAEKDGCKIMSQSELMNGFANITSATKEAMYAAMTQNDQTVYFYSFYAYMSWNFNSSSIRTGIKCISQSTYDLMSPTDLRRQWWDPTGKAEVPATSYNQRVYQNRKFTARSTADAVGDFAFMRISEMYLTAAEAFARSNQDAKAKEYLQALLKERDPEYKDLGNTGAKLADEIMTHRRIELWGEGFRWFDLKRLGLPLDRTGSNFDATFCGFLHKDPNADGWIFEIPKKETDFNDLIEKNY	not soluble
SQEQAQTTDWRATLKTIRNGVHKIDTYLNAALDLLGGEDGLCQYKCSDGSKPFPRYGYKPSPPNGCGSPLFGVHLNIGIPSLTKCCNQHDRCYETCGKSKNDCDEEFQYCLSKICRDVQKTLGLTQHVQACETTVELLFDSVIHLGCKPYLDSQRAACRCHYEEKTDL	soluble
MRWAIVRFPGANCDEDARFALEKAGIRAEFVWHTERDLRGFDGVFLPGGFSYGDYLRAGALAAKSPVMEAVRRFAEEGRYVVGVCNGFQILTEAGLLPGALLANLNLHFTCKEVGVRVERNDLPFTRLYPRGQVLRLPIAHGEGRYYADPETLARLEGEGLVVFRYAPLKDEADYNPNGSLHDIAGIVSEKGNVLGMMPHPERAVDEVLGNTDGLPFFLGLVKEVAR	soluble
MKKTPLYEAHLRLGARMVDFAGYLLPLQYTSIVEEHLAVRRAVGVFDVSHMGEFLVRGKEALAFLQWATANDAGKLKVGRAQYSMLPNERGGVVDDIYLYRLGEEEYLMVVNAANIAKDLAHLQALAKGFRVELEDASERTALLALQGPKAASLLQGLTDLDLSQKRKNDVFPARVAGRPARLARTGYTGEDGFELFLAPEDAEPVFLALVEAGAKPAGLGARDSLRLEAGFPLYGHELTEETNPLCTPWAWVVKKEKAFLGKEAMLAQACRERLVGLVLEGGIPREGYRVLSGGRPVGRVTSGGYSPLLQRGIALAYVEEGAEGPFQVEVRGRAVPAALSPLPFVPLK	soluble
AMSTQGLVQLLANAQCHLRTSTNYNGVHTQFNSALNYKNNGTNTIDGSEAWCSSIVDTNQYIVAGCEVPRTFMCVALQGRGDADQWVTSYKIRYSLDNVSWFEYRNGAAVTGVTDRNTVVNHFFDTPIRARSIAIHPLTWNGHISLRCEFYTQPVQSSVTQVGADIYTGDNCALNTGSGKREVVVPVKFQFEFATLPKVALNFDQIDCTDATNQTRIGVQPRNITTKGFDCVFYTWNENKVYSLRADYIATALE	soluble
DVTDIKVKEAEIVSKSVAIREIHHRVKNNLQSVVSLLRIQGRRSTSVEAQKVLNESVSRILAIAATHELLSKQMEDGINLYMVIEAVAYNIERCCNDCPQVAVRMDI	not soluble
MKKILSILLALLLSISSLGVTTSHAEEKIHIEAAAALLFDADTGKILHEQNPDELLAIASMSKLIVVYAVLEAIKEGKITWDTKVNISDYAYEVSRNNEFSNVPFEKGRQYTVRELYHSIVIFSANGSSIALAELLAGSEKNFLNLANEHAKKLGLKKYKFVNATGLNNTDLKGKHPEGTDPNAENSMSARDMGILSKAMITKYPEMLEDTKQRFRNFPDNHPKPIRMENWNWMLPGAAFAYEGTDGLKTGSSDTAGYGFTITAKRGDVRLISVIIKTKSMDERFTESRELIEYGFNNFEKQKLKVDKNNTLSVAQGKEDQVTVAPEKEITVIAKKGSKNPYKIGTEVDKSLAEDGHLVAPIKKDAKVGSITLESTDKYGFLDGSNSMKVTAKTTEEVEKANWFVLTMRSIGDFFSNLWSKVF	not soluble
MSRSKKSRKPGTNSNDQLVVVRTRSESELESRLRKKLKKRKGLKSGSRHSEGSESQVRQAAQKRDPRLGSKKPIPLIVAEPKKLNKQERKLAAEQELAMLEKDAQLNVLLDRLDNGEKLGIGLQKYVDEKLDRIEVLMEQLGLLDDEPEPAPAPQSKPTKKRKTEDDLLSEFEQLDVDKYQD	not soluble
MNVIVEISDRLGMDYYFVSVTTTAKSLQLNSPKKYYKIWHQEIPYHQITEWHLTQQEDIQEISFAWQETFYRFVDYGTGIVPYLTQFCKVMR	not soluble
KILLKTSENGLDLEKPYYQAVIRRWQNKITDADTRRETVSAVSPKIILNDAPKWAVMLETEWQDGEWFEGRLAQEWLDKGVATNREQVAALETELKQKPAQLLIGVRAQTVPDRGVLRQIVRLSEAAQGGAVVQLLAEQGLSDDLSEKLEHWRNALAECGAAWLEPDRAAQEGRLKDQ	not soluble
